According to PMC5699081 (Proceedings of the National Academy of Sciences of the …, 2017):

Target: T1, GST-MPSR1 (Misfolded Protein Sensing RING E3 ligase 1) (Arabidopsis thaliana, UniProt Q9LQX2 1-204)
T1 sequence (looked up): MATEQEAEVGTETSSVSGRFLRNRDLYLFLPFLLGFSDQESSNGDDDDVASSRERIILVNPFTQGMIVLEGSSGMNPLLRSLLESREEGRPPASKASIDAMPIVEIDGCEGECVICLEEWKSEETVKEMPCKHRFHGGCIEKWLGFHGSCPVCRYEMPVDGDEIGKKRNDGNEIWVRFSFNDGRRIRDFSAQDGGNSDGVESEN
Test: pull-down

- binding result: binds
B1: His-MPSR1-DN (enzyme, Arabidopsis thaliana, UniProt Q9LQX2 1-204, looked up)
chain: MATEQEAEVGTETSSVSGRFLRNRDLYLFLPFLLGFSDQESSNGDDDDVASSRERIILVNPFTQGMIVLEGSSGMNPLLRSLLESREEGRPPASKASIDAMPIVEIDGCEGECVICLEEWKSEETVKEMPCKHRFHGGCIEKWLGFHGSCPVSRYEMPVDGDEIGKKRNDGNEIWVRFSFNDGRRIRDFSAQDGGNSDGVESEN
